What was measured:
[1] = target: mCherry-Med1-IDR-NLS-LacI; experiment: LacO array recruitment
[2] = target: mCherry-Nup153-IDR-NLS-LacI; experiment: LacO array recruitment
Sequence of mCherry-Nup153-IDR-NLS-LacI (P49790 2-1475): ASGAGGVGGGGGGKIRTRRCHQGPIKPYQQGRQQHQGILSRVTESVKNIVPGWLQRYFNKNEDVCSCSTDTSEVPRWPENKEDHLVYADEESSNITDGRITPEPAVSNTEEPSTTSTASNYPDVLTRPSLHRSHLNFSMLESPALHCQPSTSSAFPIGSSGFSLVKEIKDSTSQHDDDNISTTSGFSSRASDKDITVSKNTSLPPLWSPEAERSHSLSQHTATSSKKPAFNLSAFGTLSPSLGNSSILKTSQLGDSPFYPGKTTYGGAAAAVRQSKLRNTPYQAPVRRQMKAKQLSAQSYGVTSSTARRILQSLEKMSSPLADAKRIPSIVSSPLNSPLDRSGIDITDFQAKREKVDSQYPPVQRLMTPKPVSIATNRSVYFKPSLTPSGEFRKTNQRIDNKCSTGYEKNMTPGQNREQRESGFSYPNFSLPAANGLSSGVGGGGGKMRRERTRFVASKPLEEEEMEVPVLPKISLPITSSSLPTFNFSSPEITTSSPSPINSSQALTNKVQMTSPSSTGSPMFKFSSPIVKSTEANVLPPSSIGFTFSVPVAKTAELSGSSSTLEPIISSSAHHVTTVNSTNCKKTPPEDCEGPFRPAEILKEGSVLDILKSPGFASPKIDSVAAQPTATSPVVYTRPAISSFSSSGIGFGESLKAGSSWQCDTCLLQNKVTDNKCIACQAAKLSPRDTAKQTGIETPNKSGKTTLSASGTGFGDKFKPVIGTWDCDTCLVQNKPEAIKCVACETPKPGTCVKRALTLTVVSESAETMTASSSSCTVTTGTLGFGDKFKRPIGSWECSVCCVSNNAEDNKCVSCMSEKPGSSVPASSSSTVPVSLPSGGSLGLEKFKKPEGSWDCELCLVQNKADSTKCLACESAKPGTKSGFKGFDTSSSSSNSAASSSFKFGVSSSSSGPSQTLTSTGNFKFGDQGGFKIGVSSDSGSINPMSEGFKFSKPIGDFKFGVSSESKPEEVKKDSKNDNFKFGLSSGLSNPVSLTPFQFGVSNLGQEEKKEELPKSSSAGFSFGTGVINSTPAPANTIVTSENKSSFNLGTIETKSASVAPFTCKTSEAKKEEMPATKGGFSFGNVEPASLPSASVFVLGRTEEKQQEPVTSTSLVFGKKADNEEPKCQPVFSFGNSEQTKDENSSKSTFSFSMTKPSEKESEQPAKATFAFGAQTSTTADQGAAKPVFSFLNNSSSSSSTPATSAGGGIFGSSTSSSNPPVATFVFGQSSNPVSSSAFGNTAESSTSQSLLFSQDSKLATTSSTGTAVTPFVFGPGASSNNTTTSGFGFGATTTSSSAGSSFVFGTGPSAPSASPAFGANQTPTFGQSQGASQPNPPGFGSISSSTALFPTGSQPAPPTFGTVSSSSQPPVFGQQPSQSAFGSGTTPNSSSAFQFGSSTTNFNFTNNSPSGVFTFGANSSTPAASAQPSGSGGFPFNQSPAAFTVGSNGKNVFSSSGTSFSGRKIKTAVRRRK

Sequence of EGFP-Med1-NLS (Med1 IDR fused to GFP) (domain or fragment) (Q15648 whole entry, the tested form may be a part): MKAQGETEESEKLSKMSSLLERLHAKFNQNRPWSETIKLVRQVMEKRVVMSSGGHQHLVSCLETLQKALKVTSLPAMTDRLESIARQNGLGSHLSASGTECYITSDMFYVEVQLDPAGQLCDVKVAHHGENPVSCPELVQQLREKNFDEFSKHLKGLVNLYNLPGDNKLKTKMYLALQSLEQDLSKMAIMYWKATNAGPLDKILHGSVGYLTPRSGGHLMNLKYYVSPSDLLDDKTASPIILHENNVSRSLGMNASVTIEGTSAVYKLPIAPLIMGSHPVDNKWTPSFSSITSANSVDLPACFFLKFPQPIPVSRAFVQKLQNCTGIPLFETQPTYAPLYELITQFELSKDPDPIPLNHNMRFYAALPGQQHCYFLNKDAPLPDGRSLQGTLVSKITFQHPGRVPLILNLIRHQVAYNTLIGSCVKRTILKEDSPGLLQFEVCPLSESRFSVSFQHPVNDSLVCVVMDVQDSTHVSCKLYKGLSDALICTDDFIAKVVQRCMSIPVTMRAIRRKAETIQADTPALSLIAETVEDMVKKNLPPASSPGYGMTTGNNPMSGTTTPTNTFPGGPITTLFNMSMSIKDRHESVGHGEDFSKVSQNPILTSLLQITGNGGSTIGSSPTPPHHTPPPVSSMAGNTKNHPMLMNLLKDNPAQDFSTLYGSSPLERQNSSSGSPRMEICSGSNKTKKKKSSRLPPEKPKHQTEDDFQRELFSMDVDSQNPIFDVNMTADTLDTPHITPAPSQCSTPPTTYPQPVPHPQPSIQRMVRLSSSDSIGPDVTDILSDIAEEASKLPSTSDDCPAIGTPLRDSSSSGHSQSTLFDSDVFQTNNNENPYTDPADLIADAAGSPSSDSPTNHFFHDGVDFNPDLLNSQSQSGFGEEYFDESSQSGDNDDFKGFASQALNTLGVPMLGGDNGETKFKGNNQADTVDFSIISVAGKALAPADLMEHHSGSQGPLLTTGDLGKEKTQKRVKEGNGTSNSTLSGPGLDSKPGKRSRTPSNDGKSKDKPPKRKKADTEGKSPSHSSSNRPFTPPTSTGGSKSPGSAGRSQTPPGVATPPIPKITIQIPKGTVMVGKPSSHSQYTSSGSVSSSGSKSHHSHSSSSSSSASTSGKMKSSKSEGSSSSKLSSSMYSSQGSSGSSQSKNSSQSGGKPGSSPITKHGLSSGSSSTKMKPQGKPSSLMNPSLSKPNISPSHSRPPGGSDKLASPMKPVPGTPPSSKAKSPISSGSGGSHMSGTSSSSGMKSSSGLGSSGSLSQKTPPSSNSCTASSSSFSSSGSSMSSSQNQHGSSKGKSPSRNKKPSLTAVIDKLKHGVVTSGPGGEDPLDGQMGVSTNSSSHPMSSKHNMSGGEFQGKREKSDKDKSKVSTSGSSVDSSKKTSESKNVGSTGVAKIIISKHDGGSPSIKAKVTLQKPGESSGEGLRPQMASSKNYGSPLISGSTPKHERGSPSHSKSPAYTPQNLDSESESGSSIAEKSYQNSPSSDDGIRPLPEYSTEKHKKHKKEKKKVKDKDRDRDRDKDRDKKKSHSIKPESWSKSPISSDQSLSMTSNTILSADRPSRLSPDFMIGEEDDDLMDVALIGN
Sequence of mCherry-Med1-IDR-NLS-LacI (Q15648 whole entry): as the sequence (Q15648 whole entry, the tested form may be a part) above

| percent of cells with colocalized GFP and mCherry signal [1] | percent of cells with colocalized GFP and mCherry signal [2] | Substance |
| --- | --- | --- |
| 53 % of cells | 67 % of cells | EGFP-PolII CTD52-NLS (domain or fragment) |
|  | 13 % of cells | EGFP-Med1-NLS (Med1 IDR fused to GFP) (domain or fragment) |

Reference: publication doi:10.1101/2021.05.10.443506
